Here are results for 2 molecules from PMC10866649 (2024).

Sequences and labels used below:
B2: Mouse neonatal Fc receptor (mFcRn) (receptor)
chain 1: SETRPPLMYHLTAVSNPSTGLPSFWATGWLGPQQYLTYNSLRQEADPCGAWMWENQVSWYWEKETTDLKSKEQLFLEALKTLEKILNGTYTLQGLLGCELASDNSSVPTAVFALNGEEFMKFNPRIGNWTGEWPETEIVANLWMKQPDAARKESEFLLNSCPERLLGHLERGRRNLEWKEPPSMRLKARPGNSGSSVLTCAAFSFYPPELKFRFLRNGLASGSGNCSTGPNGDGSFHAWSLLEVKRGDEHHYQCQVEHEGLAQPLTVDLDSSARSS
chain 2: IQKTPQIQVYSRHPPENGKPNILNCYVTQFHPPHIEIQMLKNGKKIPKVEMSDMSFSKDWSFYILAHTEFTPTETDTYACRVKHASMAEPKTVYWDRDM

In test [1] the target is B2. The test is described as follows: SPR. (In general: Surface plasmon resonance follows binding to a sensor surface in real time, without labels.)
Test [2] addresses Wild-type human IgG1 Fc (Fc^WT) (human, N-linked glycan at N297, predominantly fucosylated agalactosylated or monogalactosylated). The test is described as follows: SPR.

B1: Human IgG1 Fc bearing the Abdeg mutations (Fc^Abdeg, efgartigimod) (domain or fragment)
chain: DKTHTCPPCPAPELLGGPSVFLFPPKPKDTLYITREPEVTCVVVDVSHEDPEVKFNWYVDGVEVHNAKTKPREEQYNSTYRVVSVLTVLHQDWLNGKEYKCKVSNKALPAPIEKTISKAKGQPREPQVYTLPPSRDELTKNQVSLTCLVKGFYPSDIAVEWESNGQPENNYKTTPPVLDSDGSFFLYSKLTVDKSRWQQGNVFSCSVMHEALKFHYTQKSLSLSPGK
As for B1, the Kd in test [1] worked out at 0.27 nM.
In the case of B2, the affinity in test [2], expressed as Kd, was 70 nM.

Usually Kd stands for the concentration at which binding is half-saturated.
